Data reported in US20180355050A1 (Ablynx, published 2018).

T1: hRANKL (TNF11) (human, UniProt O14788 140-317, limits assumed)
T1 sequence (looked up): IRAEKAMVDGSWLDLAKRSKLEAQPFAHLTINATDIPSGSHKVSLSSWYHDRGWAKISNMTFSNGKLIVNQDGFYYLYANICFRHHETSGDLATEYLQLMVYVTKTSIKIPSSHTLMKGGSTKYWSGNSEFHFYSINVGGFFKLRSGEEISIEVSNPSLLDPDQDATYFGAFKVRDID

T2: recombinant mouse CD40L (mouse, UniProt P27548 112-260, limits assumed)
T2 construct: also called mouse CD40L (R&D NSO)
T2 sequence (looked up): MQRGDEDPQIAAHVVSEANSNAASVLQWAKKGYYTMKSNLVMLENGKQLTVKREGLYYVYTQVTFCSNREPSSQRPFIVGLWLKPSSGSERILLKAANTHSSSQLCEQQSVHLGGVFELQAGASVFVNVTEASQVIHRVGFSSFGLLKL

T3: recombinant human CD40L (human, UniProt P29965 108-261, limits assumed)
T3 construct: Bought soluble recombinant protein (R&D, HEK, 6420-CL/CF); also called hCD40L; human CD40L (HEK, R&D)
T3 sequence: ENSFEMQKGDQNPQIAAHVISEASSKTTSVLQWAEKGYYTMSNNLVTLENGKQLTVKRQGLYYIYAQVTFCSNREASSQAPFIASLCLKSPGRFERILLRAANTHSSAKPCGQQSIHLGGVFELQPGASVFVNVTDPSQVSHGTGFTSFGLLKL

T4: human CD40L expressed on CHO cells (human, UniProt P29965 1-261)
T4 sequence: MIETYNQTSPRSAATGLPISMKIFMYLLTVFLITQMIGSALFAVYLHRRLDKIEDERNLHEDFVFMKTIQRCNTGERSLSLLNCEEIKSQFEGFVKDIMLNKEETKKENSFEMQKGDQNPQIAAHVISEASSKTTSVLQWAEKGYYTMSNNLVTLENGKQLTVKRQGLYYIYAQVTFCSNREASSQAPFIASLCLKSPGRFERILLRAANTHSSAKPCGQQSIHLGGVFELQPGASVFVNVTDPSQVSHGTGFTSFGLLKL

T5: rat CD40L on transiently transfected HEK cells (rat, UniProt Q9Z2V2 1-260)
T5 construct: whole, on cells
T5 sequence (looked up): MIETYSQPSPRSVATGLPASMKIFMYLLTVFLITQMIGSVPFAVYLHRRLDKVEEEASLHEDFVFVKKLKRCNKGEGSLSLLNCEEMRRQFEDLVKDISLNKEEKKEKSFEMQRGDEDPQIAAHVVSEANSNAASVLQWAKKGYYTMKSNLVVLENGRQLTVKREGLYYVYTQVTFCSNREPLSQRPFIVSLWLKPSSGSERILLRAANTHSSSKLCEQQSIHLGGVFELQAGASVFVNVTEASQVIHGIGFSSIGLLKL

B1: C0100046B03 (VHH)
VHH: EVQLVESGGGLVQAGGSLRLSCAASGRTPLNYHMAWFRQAPGKEREFVAAISSLLGSTDYSDSLKDRFTISRDNAKATLYLRMNNLKPEDTAVYYCAARETTHYSTSDRVNEMRHYDYWGQGTLVTVSS
notes: Monovalent Nanobody; tag of the monovalent form not spelled out; also called C01000046B03
B2: C0100029C10 (VHH)
VHH: EVQLVESGGGLVQPGGSLRLSCAASGFTLDYYALGWFRQAPGKEREGVSCISSTESSDGSTYYADSVKGRFTISRDSAKNTVYLQMNSLKPEDTAVYYCATDQTLFGVCRGIATPDPGFWGQGTLVTVSS
notes: Monovalent Nanobody; tag of the monovalent form not spelled out; also called C01000029C10
B3: C0100044B07 (VHH)
VHH: EVQLVESGGGLVQPGGRLRLSCAASGFTLDYYALAWFRQAPGKEREGVSCISSSEGSTDYADYADSVKGRFTISRDTAKNTVYLQMNNLKPEDTAVYYCATDETTFFSGSCTLSAATFGSWGQGTLVTVSS
notes: Monovalent Nanobody; tag of the monovalent form not spelled out; also called C01000044B07
B4: C0100028B02 (VHH)
VHH: EVQLVESGGGLVQPGGSLRLSCAASGFTLEYYAIGWFRQAPGKEREGVSCISSEGSTSYTDSVKGRFTISRDNAKNTVYLQMNSLKPEDTAVYYCATDPDRGFLGSSCDTQSHQYDYWGQGTLVTVSS
notes: Monovalent Nanobody produced in P. pastoris (pAX205); Detected with anti-FLAG reagents, but the tag of the monovalent form is not spelled out; also called C01000028B02

These molecules were tested against human TNFα (human, UniProt P01375 77-233) (assay: competition ELISA on coated human CD40L, fixed Nanobody, dilution series of competitor).
Sequence of human TNFα (P01375 77-233 limits assumed): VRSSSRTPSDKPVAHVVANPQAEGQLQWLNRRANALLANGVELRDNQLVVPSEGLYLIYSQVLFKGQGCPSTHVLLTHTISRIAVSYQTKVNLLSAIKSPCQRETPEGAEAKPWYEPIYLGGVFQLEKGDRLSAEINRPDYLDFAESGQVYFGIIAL
Source text: (§1) The Basic Local Alignment Search Tool (BLAST) was used to identify the closest related protein in the human protein database. […] A fixed concentration of Nanobody was used together with a dilution series of competitor (TNFα, HVEM-L (TNF14) and hRANKL (TN F11); CD40L was used as positive control), starting at a 100-fold excess. The Nano bodies were detected with anti-FLAG-HRP (Sigma (A8592)).

Row | Molecule | binding result
1 | B1 | no binding (tested: competitor from a 100-fold excess)
2 | B2 | no binding (tested: competitor from a 100-fold excess)
3 | B3 | no binding (tested: competitor from a 100-fold excess)
4 | B4 | no binding (tested: competitor from a 100-fold excess)

What follows are molecules tested against HVEM-L (TNF14) (human, UniProt O43557 74-240, limits assumed) in the same assay as above.
Sequence of HVEM-L (TNF14) (O43557 74-240 limits assumed): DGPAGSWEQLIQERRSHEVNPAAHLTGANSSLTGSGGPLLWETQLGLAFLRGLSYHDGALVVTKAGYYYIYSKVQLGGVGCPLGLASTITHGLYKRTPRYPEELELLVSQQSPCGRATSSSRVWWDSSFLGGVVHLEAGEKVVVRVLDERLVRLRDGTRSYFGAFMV
Source text: as §1

Row | Molecule | binding result
5 | B1 | no binding (tested: competitor from a 100-fold excess)
6 | B2 | no binding (tested: competitor from a 100-fold excess)
7 | B3 | no binding (tested: competitor from a 100-fold excess)
8 | B4 | no binding (tested: competitor from a 100-fold excess)

What follows are molecules tested against T1, hRANKL (TNF11) in the same assay as above.
Source text: as §1

Row | Molecule | binding result
9 | B1 | no binding (tested: competitor from a 100-fold excess)
10 | B2 | no binding (tested: competitor from a 100-fold excess)
11 | B3 | no binding (tested: competitor from a 100-fold excess)
12 | B4 | no binding (tested: competitor from a 100-fold excess)

What follows are molecules tested against T2, recombinant mouse CD40L (assay: SPR (ProteOn), immobilised recombinant mouse CD40L 3000-4000 RU; member of the lead panel).
Procedure: To assess binding to mouse CD40L (UniProt accession number: P27548), ProteOn GLC Sensor Chips were coated with 3000-4000 RU of recombinant mouse CD40L (R&D NSO) in 10 mM acetate buffer pH5.5. Purified monovalent anti-CD40L Nanobodies in ProteOn running buffer: PBS/Tween (phosphate buffered saline, pH 7.4 with 0.005% Tween 20) were flown over the sensor chips at 100 nM. Processed curves were used for off-rate analysis based on the Langmuir dissociation model.

Row | binding result | Molecule
13 | no binding (tested: 100 nM) | B1
14 | no binding (tested: 100 nM) | B2
15 | no binding (tested: 100 nM) | B3
16 | no binding (tested: 100 nM) | B4

These molecules were tested against T3, recombinant human CD40L (assay: FACS ligand competition, biotinylated human CD40L on rhesus CD40 HEK cells).

Row | % block (maximum observed effect) | IC50 | Molecule
17 | 100% | 28.2 nM | B1
18 | 87% | 12.4 nM | B2
19 | 83% | 5.41 nM | B3
20 | 72% | 4.55 nM | B4

What follows are molecules tested against T3, recombinant human CD40L (assay: FACS ligand competition, biotinylated human CD40L on human CD40 HEK cells; * suboptimal curve fit).

Row | IC50 | Molecule
21 | 0.142 nM | B2

Each molecule was assayed against T4, human CD40L expressed on CHO cells (assay: cell-based or functional assay).

Row | IC50 (pM), B-cell activation | IC50 (pM), B-cell proliferation | Molecule
22 | 101 pM | 864 pM | CDP7657 (non-pegylated) (Fab)

Molecular target: T4, human CD40L expressed on CHO cells
Assay: cell-based or functional assay
Remark: another data set of the same source

Row | IC50 (M), B-cell proliferation assay, +HSA | Molecule
23 | 2.38e-09 M | B1
24 | 1.06e-09 M | B2
25 | 1.14e-09 M | B3
26 | 2.81e-09 M | B4

The molecules below were run against T3, recombinant human CD40L (assay: FACS ligand competition, biotinylated human CD40L on cyno CD40 HEK cells).
Procedure: Cross-reactivity to cynomolgus CD40L (UniProt accession number: G7PG38) and rhesus CD40L (UniProt accession number: G7N4M5) was tested in a ligand competition assay. […] 2×10⁵ cells (transiently transfected HEK cells) were incubated with dilution series of the purified Nanobodies in FACS buffer for 30 minutes at 4° C. Cells were then washed 3× and finally resuspended in FACS buffer containing Streptavidin-PE (BD Pharmingen, #554061). This mixture was incubated for 30 minutes at 4° C. Cells were further handled as set out above.

Row | % block (maximum observed effect) | IC50 | Molecule
27 | 97% | 22.7 nM | B1
28 | 81% | 8.07 nM | B2
29 | 79% | 5.28 nM | B3
30 | 75% | 4.7 nM | B4

The molecules below were run against T3, recombinant human CD40L (assay: FACS ligand competition, biotinylated human CD40L on human CD40 HEK cells).

Row | % block (maximum observed effect) | IC50 | Molecule
31 | 96% | 15.3 nM | B1
32 | 98% |  | B2
33 | 82% | 5.89 nM | B3
34 | 71% | 4.43 nM | B4

Each molecule was assayed against T5, rat CD40L on transiently transfected … (assay: FACS on HEK cells transiently transfected with rat CD40L).
Procedure: Cross-reactivity to rat CD40L (UniProt accession numbers: Q9Z2V2 and Q9R254 (secondary)) was tested in FACS. Purified Nanobodies were analyzed on FACS for binding to rat CD40L. 2×10⁵ cells (transiently transfected rat CD40L HEK cells) were incubated with the purified Nanobodies in FACS buffer for 30 minutes at 4° C. Cells were washed 3×, re-suspended and incubated for 30 minutes at 4° C. Cells were washed again 3× and dead cells were stained with TOPRO3 (Molecular probes, T3605). Samples were analyzed on a FACSarray™ (BD Biosciences).

Row | binding result | Molecule
35 | no binding | B1
36 | no binding | B2
37 | no binding | B3
38 | no binding | B4

Molecular target: T4, human CD40L expressed on CHO cells
Assay: cell-based or functional assay
Remark: another data set of the same source

Row | Average IC50 (M), B-cell proliferation assay | Molecule
39 | 2.18e-09 M | B1
40 | 1.26e-09 M | B2
41 | 9.71e-10 M | B3
42 | 1.15e-09 M | B4
